Experimental findings from patent US20090304715A1 (TOKYO UNIVERSITY OF SCIENCE, published 2009) are described below.

As usually defined, the EC50 is the concentration needed to bring the measured effect to its halfway point.

Test [1] deals with T1, CD20 on CD20-positive human Burkitt's lymphoma Ramos cells (human, UniProt P11836 1-297).
T1 construct: whole, on cells; also called B cell-specific differentiation antigen CD20
T1 sequence (looked up): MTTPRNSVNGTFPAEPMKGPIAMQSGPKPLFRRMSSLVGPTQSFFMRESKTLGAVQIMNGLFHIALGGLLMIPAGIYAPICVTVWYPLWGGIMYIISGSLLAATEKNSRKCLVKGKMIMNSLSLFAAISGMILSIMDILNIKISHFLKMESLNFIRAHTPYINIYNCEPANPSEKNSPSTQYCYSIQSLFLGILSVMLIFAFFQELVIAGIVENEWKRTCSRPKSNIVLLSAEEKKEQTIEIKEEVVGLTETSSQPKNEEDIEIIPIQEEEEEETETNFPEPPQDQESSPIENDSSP
The test can be described thus: flow cytometry on CD20-positive Ramos cells, antibody 50 nM, FITC anti-human kappa. Here is the method: CD20-positive human Burkitt's lymphoma Ramos cells were cultured using RPMI1640 containing 10% heat-inactivated fetal bovine serum, 1 mM sodium pyruvate (Wako), 100 U/ml penicillin, and 100 μg/ml streptomycin at 37° C. under 5% CO₂. The Ramos cell culture solution was centrifuged at 600 g for five minutes. After the medium was removed, the cells were suspended in an appropriate volume of medium. After another centrifugation at 600 g for five minutes, the medium was removed. 5 ml of FACS buffer (PBS containing 0.1% BSA and 0.02% NaN₃) was added to suspend the cells, and this was left on ice and blocked for 30 minutes. The supernatant was removed after centrifugation at 600 g for five minutes, cells were suspended at 5×10⁶ cells/ml in FACS buffer, and 100 μl were aliquoted per 1.5-ml tube. […] The supernatants were removed, and cells were washed by adding 500 μl of FACS buffer. This process was repeated twice to completely remove the non-reacted antibodies. Cells were suspended in 100 μl of FACS buffer containing 20 μg/ml FITC-labeled goat anti-human Kappa chain antibody (Biosource International), and allowed to stand on ice in the dark for 30 minutes. Cells were washed with the method described above, suspended in 100 μl of FACS buffer, filtered through a mesh with a hole size of 59 μm, and transferred into FACS tubes. The CD20 binding activity of each antibody was analyzed by fluorescence measurement using FACScan (Becton Dickinson) (FIG. 8).

The target of test [2] is T2, recombinant FcγRIA extracellular domain-Gly-His6-GST (human, UniProt P12314 16-292).
T2 construct: extracellular domain; Residues from the XbaI junction between receptor and tag are not spelled out; also called FcγRIA/Gly-His6-GST; not shown: GST amplified from pGEX-2TK
T2 sequence (P12314 other isoform, or with tags, fused parts or gaps): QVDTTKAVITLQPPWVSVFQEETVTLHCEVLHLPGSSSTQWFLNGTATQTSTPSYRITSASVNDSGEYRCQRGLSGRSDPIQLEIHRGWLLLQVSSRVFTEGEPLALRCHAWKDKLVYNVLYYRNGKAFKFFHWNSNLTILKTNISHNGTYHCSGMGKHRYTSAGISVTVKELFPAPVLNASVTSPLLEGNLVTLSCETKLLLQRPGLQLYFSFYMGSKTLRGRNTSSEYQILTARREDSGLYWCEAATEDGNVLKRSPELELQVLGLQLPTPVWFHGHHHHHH
The test is described as follows: ELISA, plate-coated recombinant FcγRIA extracellular domain-Gly-His6-GST, HRP anti-human kappa. Here is the method: (§1) The prepared FcγR (FcγRIA, FcγRIIA, FcγRIIB, FcγRIIIA^Val, and FcγRIIIA^Phe) were adjusted to 4 μg/ml with PBS, aliquoted into 96-well plates at 50 μl per well, and allowed to stand at 4° C. overnight. Then the solutions were discarded and 180 μl of ELISA Assay buffer (0.5% BSA, 2 mM EDTA, 0.05% Tween20, 25 mM TBS (pH 7.4)) was added to each well. The plates were allowed to stand and blocked at 37° C. for 2 hours. The solutions were discarded, 50 μl of antibody solutions serially diluted with ELISA Assay buffer were added to each well and allowed to react at 37° C. for two hours. The antibody solutions were discarded and wells were washed three times with 150 μl of ELISA Assay buffer. 50 μl of ELISA Assay buffer containing 0.33 μg/ml HRP-labeled goat anti-human Kappa chain antibody was aliquoted into each well and allowed to stand at 37° C. for one hour. After the antibody solution was removed, wells were washed three times with 150 μl of ELISA Assay buffer. 50 μl of a substrate solution (sodium citrate buffer (pH 5.0) containing 0.4% o-phenylenediamine dihydrochloride and 0.003% H₂O₂) was aliquoted and allowed to stand at room temperature in the dark for ten minutes. Then measurements at A450 were carried out using a microplate reader (FIG. 9).

Test [3] deals with T3, recombinant FcγRIIB extracellular domain-Gly-His6-GST (human, UniProt P31994 43-217).
T3 construct: extracellular domain; Expressed in 293T cells, purified on Ni-NTA; also called FcγRIIB/Gly-His6-GST; not shown: GST amplified from pGEX-2TK
T3 sequence: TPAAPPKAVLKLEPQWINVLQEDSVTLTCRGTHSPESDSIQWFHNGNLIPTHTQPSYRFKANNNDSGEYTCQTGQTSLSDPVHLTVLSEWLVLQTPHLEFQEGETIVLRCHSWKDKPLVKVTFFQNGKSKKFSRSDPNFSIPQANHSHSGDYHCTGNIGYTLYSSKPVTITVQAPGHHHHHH
The test can be described thus: ELISA, plate-coated recombinant FcγRIIB; Ab50 = antibody concentration at 50% of maximal binding. The procedure: as §1
A general note: An ELISA detects its analyte on a solid surface through an enzyme-linked reagent.

The target of test [4] is T4, recombinant FcγRIIIA (Val^158 type) extracellular domain-Gly-His6-GST (human, UniProt P08637 17-208).
T4 construct: extracellular domain; Valine at position 158 (printed once as 157V); The database entry may carry Phe at this position; also called type-V FcγRIIIA; FcγRIIIA(157V); not shown: GST amplified from pGEX-2TK
T4 sequence (P08637 other isoform, or with tags, fused parts or gaps): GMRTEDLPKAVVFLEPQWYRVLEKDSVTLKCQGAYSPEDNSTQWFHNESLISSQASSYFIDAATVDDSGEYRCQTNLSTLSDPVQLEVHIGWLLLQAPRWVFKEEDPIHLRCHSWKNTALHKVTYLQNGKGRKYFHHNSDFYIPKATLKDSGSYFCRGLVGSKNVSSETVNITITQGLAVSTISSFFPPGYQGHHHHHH
The test is described as follows: ELISA, plate-coated recombinant FcγRIIIA (Val158); Ab50 = antibody concentration at 50% of maximal binding. The procedure: as §1

For test [5], the target named is T5, recombinant FcγRIIA extracellular domain-Gly-His6-GST (human, UniProt P12318 34-217).
T5 construct: extracellular domain; Expressed in 293T cells, purified on Ni-NTA; also called FcγRIIA/Gly-His6-GST; not shown: GST amplified from pGEX-2TK
T5 sequence: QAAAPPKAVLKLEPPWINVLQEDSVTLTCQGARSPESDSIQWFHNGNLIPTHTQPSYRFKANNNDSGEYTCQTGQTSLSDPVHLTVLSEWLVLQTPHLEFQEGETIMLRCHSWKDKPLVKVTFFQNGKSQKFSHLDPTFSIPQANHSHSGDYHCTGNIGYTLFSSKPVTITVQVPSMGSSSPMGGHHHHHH
The test can be described thus: ELISA, plate-coated recombinant FcγRIIA; Ab50 = antibody concentration at 50% of maximal binding; reference M. Here is the method:
as §1

B1: mouse/human chimeric anti-CD20 antibody, Fc monomer (M) (antibody)
heavy: not shown
light: QIVLSQSPAILSASPGEKVTMTCRASSSLSFMHWYQQKPGSSPKPWIYATSNLASGVPARFSGSGSGTSYSLTISRVEAEDAATYFCHQWSSNPLTFGAGTKLLETVAAPSVFIFPPSDEQLKSGTASVVCLLNNFYPREAKVQWKVDNALQSGNSQESVTEQDSKDSTYSLSSTLTLSKADYEKHKVYACEVTHQGLSSPVTKSFNRGEC
notes: Variable regions of mouse 1F5, human IgG1/kappa constant regions; Produced in CHO DG44; also called Anti-CD20 HC Fc Monomer
Take B1: the binding result in test [1] and in test [2] was “binds” each time. Moreover, the EC50 in test [3] is about 50 nM; in test [4], about 30 nM.

B2: modified anti-CD20 antibody, Fc trimer with two G4S spacers (T2) (antibody)
heavy: not shown
light: QIVLSQSPAILSASPGEKVTMTCRASSSLSFMHWYQQKPGSSPKPWIYATSNLASGVPARFSGSGSGTSYSLTISRVEAEDAATYFCHQWSSNPLTFGAGTKLLETVAAPSVFIFPPSDEQLKSGTASVVCLLNNFYPREAKVQWKVDNALQSGNSQESVTEQDSKDSTYSLSSTLTLSKADYEKHKVYACEVTHQGLSSPVTKSFNRGEC
Turning to B2, the EC50 in test [3] and in test [4] was about 0.5 nM each time. Further, the “fold difference of Ab50 against M” value in test [5] was about 100 times.

B3: modified anti-CD20 antibody, Fc dimer with three G4S spacers (D3) (antibody)
heavy: not shown
light: QIVLSQSPAILSASPGEKVTMTCRASSSLSFMHWYQQKPGSSPKPWIYATSNLASGVPARFSGSGSGTSYSLTISRVEAEDAATYFCHQWSSNPLTFGAGTKLLETVAAPSVFIFPPSDEQLKSGTASVVCLLNNFYPREAKVQWKVDNALQSGNSQESVTEQDSKDSTYSLSSTLTLSKADYEKHKVYACEVTHQGLSSPVTKSFNRGEC
For B3, the binding result in test [1] and in test [2] was “binds” throughout. Also, the concentration giving a half-maximal response (EC50) is about 5 nM in test [3] and about 2 nM in test [4]. The “fold difference of Ab50 against M” value in test [5] is about 60 times.

B4: modified anti-CD20 antibody, Fc dimer with one G4S spacer (D1) (antibody)
heavy: not shown
light: QIVLSQSPAILSASPGEKVTMTCRASSSLSFMHWYQQKPGSSPKPWIYATSNLASGVPARFSGSGSGTSYSLTISRVEAEDAATYFCHQWSSNPLTFGAGTKLLETVAAPSVFIFPPSDEQLKSGTASVVCLLNNFYPREAKVQWKVDNALQSGNSQESVTEQDSKDSTYSLSSTLTLSKADYEKHKVYACEVTHQGLSSPVTKSFNRGEC
For B4, the concentration for a half-maximal effect (EC50) in test [4] is about 30 nM.

B5: modified anti-CD20 antibody, Fc trimer with one G4S spacer (T1) (antibody)
heavy: not shown
light: QIVLSQSPAILSASPGEKVTMTCRASSSLSFMHWYQQKPGSSPKPWIYATSNLASGVPARFSGSGSGTSYSLTISRVEAEDAATYFCHQWSSNPLTFGAGTKLLETVAAPSVFIFPPSDEQLKSGTASVVCLLNNFYPREAKVQWKVDNALQSGNSQESVTEQDSKDSTYSLSSTLTLSKADYEKHKVYACEVTHQGLSSPVTKSFNRGEC
Take B5: the EC50 in test [3] and in test [4] was about 0.5 nM each time. In addition, the “fold difference of Ab50 against M” value in test [5] is about 100 times.

B6: modified anti-CD20 antibody, Fc trimer with three G4S spacers (T3) (antibody)
heavy: not shown
light: QIVLSQSPAILSASPGEKVTMTCRASSSLSFMHWYQQKPGSSPKPWIYATSNLASGVPARFSGSGSGTSYSLTISRVEAEDAATYFCHQWSSNPLTFGAGTKLLETVAAPSVFIFPPSDEQLKSGTASVVCLLNNFYPREAKVQWKVDNALQSGNSQESVTEQDSKDSTYSLSSTLTLSKADYEKHKVYACEVTHQGLSSPVTKSFNRGEC
For the molecule B6, the EC50 in test [3] and in test [4] was about 0.5 nM throughout. Also, the “fold difference of Ab50 against M” value in test [5] was about 100 times.

B7: modified anti-CD20 antibody, Fc dimer with two G4S spacers (D2) (antibody)
heavy: not shown
light: QIVLSQSPAILSASPGEKVTMTCRASSSLSFMHWYQQKPGSSPKPWIYATSNLASGVPARFSGSGSGTSYSLTISRVEAEDAATYFCHQWSSNPLTFGAGTKLLETVAAPSVFIFPPSDEQLKSGTASVVCLLNNFYPREAKVQWKVDNALQSGNSQESVTEQDSKDSTYSLSSTLTLSKADYEKHKVYACEVTHQGLSSPVTKSFNRGEC
Turning to B7, the EC50 in test [4] is about 30 nM.

B8: modified anti-CD20 antibody, Fc trimer with no spacer (T0) (antibody)
heavy: not shown
light: QIVLSQSPAILSASPGEKVTMTCRASSSLSFMHWYQQKPGSSPKPWIYATSNLASGVPARFSGSGSGTSYSLTISRVEAEDAATYFCHQWSSNPLTFGAGTKLLETVAAPSVFIFPPSDEQLKSGTASVVCLLNNFYPREAKVQWKVDNALQSGNSQESVTEQDSKDSTYSLSSTLTLSKADYEKHKVYACEVTHQGLSSPVTKSFNRGEC
With B8, the binding result in test [1] and in test [2] was “binds” throughout. Moreover, in test [4], the EC50 is about 2 nM. Moreover, the “fold difference of Ab50 against M” value in test [5] is about 100 times.

B9: modified anti-CD20 antibody, Fc dimer with no spacer (D0) (antibody)
heavy: not shown
light: QIVLSQSPAILSASPGEKVTMTCRASSSLSFMHWYQQKPGSSPKPWIYATSNLASGVPARFSGSGSGTSYSLTISRVEAEDAATYFCHQWSSNPLTFGAGTKLLETVAAPSVFIFPPSDEQLKSGTASVVCLLNNFYPREAKVQWKVDNALQSGNSQESVTEQDSKDSTYSLSSTLTLSKADYEKHKVYACEVTHQGLSSPVTKSFNRGEC
Take B9: the binding result in test [1] and in test [2] was “binds” throughout. The 50% effective concentration (EC50) in test [4] is about 2 nM.
